Laboratory results taken from US20120231013A1 (Amgen, published 2012).
Positions count from the first letter of the chain named. “And” between values parts separate entries of the source, which are not always exact repeats. Equal entries are not always repeated.

B1: LRP-1 peptide LA23-24 (peptide)
chain: not shown
notes: Tags implied (Ni-NTA, anti-HA detection), not described
B2: LRP-1 peptide LA6 (peptide)
chain: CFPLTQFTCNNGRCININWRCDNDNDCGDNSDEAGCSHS
notes: as for B1
B3: LRP-1 peptide LA21 (peptide)
chain: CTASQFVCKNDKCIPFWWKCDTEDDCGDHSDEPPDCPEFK
notes: as for B1
B4: LRP-1 peptide LA26 (peptide)
chain: not shown
notes: as for B1
B5: LRP-1 peptide LA22 (peptide)
chain: not shown
notes: as for B1
B6: LRP-1 peptide LA17 (peptide)
chain: CGPSSFSCPGTHVCVPERWLCDGDKDCADGADESIAAGCLYNST
notes: as for B1
B7: LRP-1 peptide LA28 (peptide)
chain: not shown
notes: as for B1
B8: LRP-1 peptide LA27 (peptide)
chain: not shown
B9: LRP-1 peptide LA11-20 (peptide)
chain: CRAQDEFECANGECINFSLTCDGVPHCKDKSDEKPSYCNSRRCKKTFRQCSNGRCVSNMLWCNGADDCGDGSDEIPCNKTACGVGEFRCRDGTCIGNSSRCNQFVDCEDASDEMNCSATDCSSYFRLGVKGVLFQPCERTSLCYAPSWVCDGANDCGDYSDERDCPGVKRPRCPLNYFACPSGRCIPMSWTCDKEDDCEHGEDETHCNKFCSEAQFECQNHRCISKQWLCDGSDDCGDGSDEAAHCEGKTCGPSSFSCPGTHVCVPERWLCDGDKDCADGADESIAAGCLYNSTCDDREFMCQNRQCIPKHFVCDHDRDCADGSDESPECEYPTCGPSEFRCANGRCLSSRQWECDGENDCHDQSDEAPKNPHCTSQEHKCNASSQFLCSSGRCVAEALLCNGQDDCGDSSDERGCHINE
B10: LRP-1 peptide LA5 (peptide)
chain: not shown
B11: LRP-1 peptide LA21-23 (peptide)
chain: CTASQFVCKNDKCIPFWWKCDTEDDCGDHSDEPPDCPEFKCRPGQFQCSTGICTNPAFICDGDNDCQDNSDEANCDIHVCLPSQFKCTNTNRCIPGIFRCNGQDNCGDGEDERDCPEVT
B12: LRP-1 peptide LA26-28 (peptide)
chain: CEPYQFRCKNNRCVPGRWQCDYDNDCGDNSDEESCTPRPCSESEFSCANGRCIAGRWKCDGDHDCADGSDEKDCTPRCDMDQFQCKSGHCIPLRWRCDADADCMDGSDEEACGTGVRT
B13: LRP-1 peptide LA3 (peptide)
chain: not shown
B14: LRP-1 peptide LA16 (peptide)
chain: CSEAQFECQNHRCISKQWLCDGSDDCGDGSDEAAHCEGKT
B15: LRP-1 peptide LA4-5 (peptide)
chain: CPSDRFKCENNRCIPNRWLCDGDNDCGNSEDESNATCSARTCPPNQFSCASGRCIPISWTCDLDDDCGDRSDESASCAYPT
B16: LRP-1 peptide LA7 (peptide)
chain: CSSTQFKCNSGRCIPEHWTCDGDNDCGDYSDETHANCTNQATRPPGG
notes: The end 1061 is inferred from the end of LA5-7; Tags implied, not described

Molecular target: T1, recombinant TIMP-3 (human or mouse; Table 2 does not say which)
T1 construct: The methods say 'human or mouse TIMP-3'
Experiment: AlphaScreen, biotinylated TIMP-3, Assay 2
Procedure: (§1) Peptides were also evaluated by AlphaScreen® (Amplified Luminescent Proximity Homogeneous Assay; PerkinElmer, Waltham, Mass.) a very sensitive non-radioactive homogeneous assay technology that allows the screening of a large range of biological interactions and activities, substantially according to the manufacturer's instructions. Briefly, all dilutions are made in AlphaScreen® Buffer: [40 mM HEPES pH 7.5, 100 mM NaCl, 1 mM CaCl2, 0.1% BSA, 0.05% Tween-20]. The LRP-1 peptides are titrated in a separate polypropylene 96-well plate (Falcon) starting at 4 microM concentration and then diluted serially 3-fold for 12-points, with the last point buffer only. First 2 microL/well of protein titration curve is added to white, small volume, 384-well assay plate (Greiner Bio-One, Stonehouse, UK) in duplicate. Next, 2 microL of biotinylated (AFS, in-house conjmicroGation) recombinant human or mouse TIMP-3, is added at 12 nM (or 3 nM final assay concentration) to the assay plate. Lastly, in subdued light 4 microL of a mixture of streptavidin donor beads, anti-mouse IgG acceptor beads (PerkinElmer) both diluted to 20 microG/mL (10 microG/mL final assay concentration) and 2 nM (1 nM final concentration) rat-anti-HA (clone3F10)-HRP (Roche Diagnostics) is added to the plates. Plates containing 8 microL final assay volme are covered with TopSeal A (to prevent evaporation), spun quickly at 1000 rpm, and incubated overnight (covered with foil to prevent light exposure) before reading on Fusion plate reader (PerkinElmer) using AlphaScreen® parameters (excitation 680 nm and emission 520-620 nm). Data is analyzed using GraphPad Prism 4.01 software. Binding to TIMP-3 is reported as total signal (cps).

Binder | total signal (cps)
B1 | 2000 cps

Molecular target: T2, recombinant mouse TIMP-3 (mouse, UniProt P39876 24-211)
T2 construct: also called MuTIMP-3
T2 sequence (looked up): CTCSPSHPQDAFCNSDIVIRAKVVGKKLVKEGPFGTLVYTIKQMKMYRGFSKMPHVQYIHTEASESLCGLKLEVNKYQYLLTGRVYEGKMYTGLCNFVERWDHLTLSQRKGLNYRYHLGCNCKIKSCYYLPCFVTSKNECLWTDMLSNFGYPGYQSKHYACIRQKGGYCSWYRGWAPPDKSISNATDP
Experiment: direct ELISA, coated muTIMP-3
Procedure: (§2) After incubation, the coating solution is removed and replaced with 250 microL/well of blocking buffer (1% BSA, TBS [pH 7.5], 1 mM CaCl₂) and incubated with shaking for 1 hour at room temperature. The plates are then washed three times with 200 microL/well with wash buffer 1 (TBS [pH 7.5], 1 mM CaCl₂). The LRP-1 peptides are titrated in assay buffer (0.1% BSA, TBS [pH 7.5], 1 mM CaCl₂, 0.02% Tween-20) in a separate polypropylene non-treated round-bottom 96-well plate (BD Falcon™) starting at 1 microM concentration and then diluted serially 4-fold for 8-points, with the last point buffer only. Then 100 microL/well of the diluted LRP-1 peptide titration is added to the TIMP-3 coated plate and allowed to bind for 1.5 hour at room temperature with shaking. After incubation, the plate is washed three times with 200 microL/well of wash buffer 2 (TBS [pH 7.5], 1 mM CaCl₂, 0.02% Tween-20). […] The assay plate is then washed three times with 200 microL/well with wash buffer 2. The plate is developed by adding 100 microL/well of 1:1 mixture of TMB and H₂O₂ (Pierce, Fisher Thermo Scientific, Rockford Il.), the reaction is stopped by adding 100 microL/well 2NH₂SO₄ (VWR), and read on a SpectraMax microplate reader (Molecular Devices, Sunnyvale, Calif.) at OD450 nm using SOFTmax Pro software version 3.1.2. Data is analyzed using GraphPad Prism 4.01 software. Binding of LRP-1 peptides to TIMP-3 is expressed as binding EC50.

Binder | EC50
B2 | 38 nM
B3 | 206 nM
B4 | 134 nM
B5 | 394 nM and 478 nM
B1 | 140 nM

Molecular target: T3, recombinant human TIMP-3 (human, UniProt P35625 24-211)
T3 construct: also called HuTIMP-3; huTIMP-3
T3 sequence (looked up): T2 sequence (looked up) with S51T, E87D, H103Q, S183I
Experiment: direct ELISA, coated huTIMP-3
Procedure: as §2

Binder | EC50
B2 | 95 nM
B3 | 303 nM
B4 | 118 nM
B6 | 886 nM
B5 | 456 nM and 340 nM
B1 | 187 nM

Molecular target: T3, recombinant human TIMP-3
Experiment: indirect ELISA, huTIMP-3 captured by anti-TIMP-3 clone 277128
Procedure: Then 100 microL/well of the diluted LRP-1 peptide titration is added to the TIMP-3 coated plate and allowed to bind for 1.5 hour at room temperature with shaking. After incubation, the plate is washed three times with 200 microL/well of wash buffer 2 (TBS [pH 7.5], 1 mM CaCl₂, 0.02% Tween-20). […] The assay plate is then washed three times with 200 microL/well with wash buffer 2. The plate is developed by adding 100 microL/well of 1:1 mixture of TMB and H₂O₂ (Pierce, Fisher Thermo Scientific, Rockford Il.), the reaction is stopped by adding 100 microL/well 2NH₂SO₄ (VWR), and read on a SpectraMax microplate reader (Molecular Devices, Sunnyvale, Calif.) at OD450 nm using SOFTmax Pro software version 3.1.2. Data is analyzed using GraphPad Prism 4.01 software. Binding of LRP-1 peptides to TIMP-3 is expressed as binding EC50.
After incubation, the plate contents are discarded and 250 microL/well of blocking buffer (1% BSA, TBS [pH 7.5], 1 mM CaCl₂) is added to the plate which is incubated with shaking for 1 hour at room temperature. The plate is then washed three times with 200 microL/well with wash buffer 1 (TBS [pH 7.5], 1 mM CaCl₂) followed by the addition of 100 microL of 20 nM recombinant human TIMP-3. The plate is incubated at room temperature for 1 hour. The LRP-1 peptides are titrated as described previously, and 100 microL/well of the diluted LRP-1 peptide titration is added to the TIMP-3 coated plate and allowed to bind for 1.5 hour at room temperature with shaking. After incubation, the plate is washed and the ELISA performed substantially as described previously for the direct binding ELISA.

Binder | EC50
B7 | 972 nM
B2 | 9 nM
B3 | 313 nM
B4 | 179 nM
B5 | 185 nM and 200 nM
B1 | 85 nM

Molecular target: MMP-13 (UniProt P45452 20-471, limits assumed)
Experiment: cell-based or functional assay

Binder | Direct Inhibition of MMP13 (% decrease), 1000 nM
B7 | 32%
B8 | 47%
B2 | 57%
B9 | 26%
B10 | 69%
B11 | 19%
B12 | 53%
B3 | -2%
B4 | 1%
CNASSQFLCSSGRCVAEALLCNGQDDCGDSSDERGCHINE [LRP-1 peptide LA20] | 0%
B13 | 7%
B6 | 41%
B14 | 20%
CLPSQFKCTNTNRCIPGIFRCNGQDNCGDGEDERDCPEVT [LRP-1 peptide LA23] | 46%
B15 | 26%
B5 | 59%

Molecular target: T3, recombinant human TIMP-3
Experiment: cell-based or functional assay

Binder | % of the inhibitory activity of TIMP-3 + peptide compared to TIMP-3 alone, 16 nM | % of the inhibitory activity of TIMP-3 + peptide compared to TIMP-3 alone, 80 nM | % of the inhibitory activity of TIMP-3 + peptide compared to TIMP-3 alone, 400 nM | % of the inhibitory activity of TIMP-3 + peptide compared to TIMP-3 alone, 2000 nM
B11 | 97% | 96% | 100% | 107%
B12 | 100% | 100% | 104% | –
B4 | 96% | 109% | 112% | 108%
B13 | – | 84% | 80% | 109%
B6 | – | 93% | 77% | 77%
B14 | 105% | 101% | 52% | 89%
CLPSQFKCTNTNRCIPGIFRCNGQDNCGDGEDERDCPEVT [LRP-1 peptide LA23] | 104% | 107% | – | 84%
B15 | – | 101% | – | 104%
B1 | – | – | 92% | 53%

Molecular target: T1, recombinant TIMP-3 (human or mouse; …)
Experiment: AlphaScreen, biotinylated TIMP-3, Assay 1
Procedure: as §1

Binder | total signal (cps)
B7 | 2200 cps
B2 | 2200 cps
B3 | 2200 cps
B4 | 2200 cps
B6 | 2200 cps
B5 | 2200 cps
B16 | 2200 cps
B1 | 2200 cps

Molecular target: T1, recombinant TIMP-3 (human or mouse; …)
Experiment: binding ELISA, Assay 2

Binder | EC50
B7 | 300 nM
B2 | 1210 nM
B3 | 1020 nM
B4 | 300 nM
B5 | 426 nM
B16 | ~2500 nM
B1 | ~600 nM
